Values belong to the binder of their own block, whether it stands above or below them.
Assays:
[1] = target: T1, murine low density lipoprotein receptor-related protein (LRP) / α2-macroglobulin receptor, CTGF receptor on … (murine, UniProt Q91ZX7 20-4545); experiment: competition with 0.1 nM 125I-CTGF on BMS-2 cells
T1 construct: whole, on cells; they are fragments found by mass spectrometry, not the construct; In the cell the protein is cleaved into non-covalently joined α and β subunits (background statement); also called α2MR; LRP/α2MR

[2] = target: T2, CTGF receptor (LRP), cells not named; experiment: 200 pM iodinated CTGF with 0-6.5 nM unlabeled CTGF on cells, S-SMCC cross-linking, densitometry of the complex bands
T2 construct: whole, on cells; 'other cells examined'); also called cross-linked complex; 620 kDa protein

[3] = target: T2, CTGF receptor (LRP), cells not named; experiment: equilibrium binding of 125I-rhCTGF to other cells with a single class of sites
[4] = target: high affinity binding site for CTGF on cells; experiment: equilibrium binding of 125I-rhCTGF to cells (FIG. 2, BMS2), non-linear regression; high affinity site
[5] = target: T1, murine low density lipoprotein …; experiment: equilibrium binding of 125I-rhCTGF to cells (FIG. 2, BMS2), non-linear regression; low affinity site
[6] = target: human low density lipoprotein receptor-related protein (LRP) / α2-macroglobulin receptor, CTGF receptor on … (human, UniProt Q07954 20-4544); experiment: cell-based or functional assay

T1 sequence (Q91ZX7 20-4545): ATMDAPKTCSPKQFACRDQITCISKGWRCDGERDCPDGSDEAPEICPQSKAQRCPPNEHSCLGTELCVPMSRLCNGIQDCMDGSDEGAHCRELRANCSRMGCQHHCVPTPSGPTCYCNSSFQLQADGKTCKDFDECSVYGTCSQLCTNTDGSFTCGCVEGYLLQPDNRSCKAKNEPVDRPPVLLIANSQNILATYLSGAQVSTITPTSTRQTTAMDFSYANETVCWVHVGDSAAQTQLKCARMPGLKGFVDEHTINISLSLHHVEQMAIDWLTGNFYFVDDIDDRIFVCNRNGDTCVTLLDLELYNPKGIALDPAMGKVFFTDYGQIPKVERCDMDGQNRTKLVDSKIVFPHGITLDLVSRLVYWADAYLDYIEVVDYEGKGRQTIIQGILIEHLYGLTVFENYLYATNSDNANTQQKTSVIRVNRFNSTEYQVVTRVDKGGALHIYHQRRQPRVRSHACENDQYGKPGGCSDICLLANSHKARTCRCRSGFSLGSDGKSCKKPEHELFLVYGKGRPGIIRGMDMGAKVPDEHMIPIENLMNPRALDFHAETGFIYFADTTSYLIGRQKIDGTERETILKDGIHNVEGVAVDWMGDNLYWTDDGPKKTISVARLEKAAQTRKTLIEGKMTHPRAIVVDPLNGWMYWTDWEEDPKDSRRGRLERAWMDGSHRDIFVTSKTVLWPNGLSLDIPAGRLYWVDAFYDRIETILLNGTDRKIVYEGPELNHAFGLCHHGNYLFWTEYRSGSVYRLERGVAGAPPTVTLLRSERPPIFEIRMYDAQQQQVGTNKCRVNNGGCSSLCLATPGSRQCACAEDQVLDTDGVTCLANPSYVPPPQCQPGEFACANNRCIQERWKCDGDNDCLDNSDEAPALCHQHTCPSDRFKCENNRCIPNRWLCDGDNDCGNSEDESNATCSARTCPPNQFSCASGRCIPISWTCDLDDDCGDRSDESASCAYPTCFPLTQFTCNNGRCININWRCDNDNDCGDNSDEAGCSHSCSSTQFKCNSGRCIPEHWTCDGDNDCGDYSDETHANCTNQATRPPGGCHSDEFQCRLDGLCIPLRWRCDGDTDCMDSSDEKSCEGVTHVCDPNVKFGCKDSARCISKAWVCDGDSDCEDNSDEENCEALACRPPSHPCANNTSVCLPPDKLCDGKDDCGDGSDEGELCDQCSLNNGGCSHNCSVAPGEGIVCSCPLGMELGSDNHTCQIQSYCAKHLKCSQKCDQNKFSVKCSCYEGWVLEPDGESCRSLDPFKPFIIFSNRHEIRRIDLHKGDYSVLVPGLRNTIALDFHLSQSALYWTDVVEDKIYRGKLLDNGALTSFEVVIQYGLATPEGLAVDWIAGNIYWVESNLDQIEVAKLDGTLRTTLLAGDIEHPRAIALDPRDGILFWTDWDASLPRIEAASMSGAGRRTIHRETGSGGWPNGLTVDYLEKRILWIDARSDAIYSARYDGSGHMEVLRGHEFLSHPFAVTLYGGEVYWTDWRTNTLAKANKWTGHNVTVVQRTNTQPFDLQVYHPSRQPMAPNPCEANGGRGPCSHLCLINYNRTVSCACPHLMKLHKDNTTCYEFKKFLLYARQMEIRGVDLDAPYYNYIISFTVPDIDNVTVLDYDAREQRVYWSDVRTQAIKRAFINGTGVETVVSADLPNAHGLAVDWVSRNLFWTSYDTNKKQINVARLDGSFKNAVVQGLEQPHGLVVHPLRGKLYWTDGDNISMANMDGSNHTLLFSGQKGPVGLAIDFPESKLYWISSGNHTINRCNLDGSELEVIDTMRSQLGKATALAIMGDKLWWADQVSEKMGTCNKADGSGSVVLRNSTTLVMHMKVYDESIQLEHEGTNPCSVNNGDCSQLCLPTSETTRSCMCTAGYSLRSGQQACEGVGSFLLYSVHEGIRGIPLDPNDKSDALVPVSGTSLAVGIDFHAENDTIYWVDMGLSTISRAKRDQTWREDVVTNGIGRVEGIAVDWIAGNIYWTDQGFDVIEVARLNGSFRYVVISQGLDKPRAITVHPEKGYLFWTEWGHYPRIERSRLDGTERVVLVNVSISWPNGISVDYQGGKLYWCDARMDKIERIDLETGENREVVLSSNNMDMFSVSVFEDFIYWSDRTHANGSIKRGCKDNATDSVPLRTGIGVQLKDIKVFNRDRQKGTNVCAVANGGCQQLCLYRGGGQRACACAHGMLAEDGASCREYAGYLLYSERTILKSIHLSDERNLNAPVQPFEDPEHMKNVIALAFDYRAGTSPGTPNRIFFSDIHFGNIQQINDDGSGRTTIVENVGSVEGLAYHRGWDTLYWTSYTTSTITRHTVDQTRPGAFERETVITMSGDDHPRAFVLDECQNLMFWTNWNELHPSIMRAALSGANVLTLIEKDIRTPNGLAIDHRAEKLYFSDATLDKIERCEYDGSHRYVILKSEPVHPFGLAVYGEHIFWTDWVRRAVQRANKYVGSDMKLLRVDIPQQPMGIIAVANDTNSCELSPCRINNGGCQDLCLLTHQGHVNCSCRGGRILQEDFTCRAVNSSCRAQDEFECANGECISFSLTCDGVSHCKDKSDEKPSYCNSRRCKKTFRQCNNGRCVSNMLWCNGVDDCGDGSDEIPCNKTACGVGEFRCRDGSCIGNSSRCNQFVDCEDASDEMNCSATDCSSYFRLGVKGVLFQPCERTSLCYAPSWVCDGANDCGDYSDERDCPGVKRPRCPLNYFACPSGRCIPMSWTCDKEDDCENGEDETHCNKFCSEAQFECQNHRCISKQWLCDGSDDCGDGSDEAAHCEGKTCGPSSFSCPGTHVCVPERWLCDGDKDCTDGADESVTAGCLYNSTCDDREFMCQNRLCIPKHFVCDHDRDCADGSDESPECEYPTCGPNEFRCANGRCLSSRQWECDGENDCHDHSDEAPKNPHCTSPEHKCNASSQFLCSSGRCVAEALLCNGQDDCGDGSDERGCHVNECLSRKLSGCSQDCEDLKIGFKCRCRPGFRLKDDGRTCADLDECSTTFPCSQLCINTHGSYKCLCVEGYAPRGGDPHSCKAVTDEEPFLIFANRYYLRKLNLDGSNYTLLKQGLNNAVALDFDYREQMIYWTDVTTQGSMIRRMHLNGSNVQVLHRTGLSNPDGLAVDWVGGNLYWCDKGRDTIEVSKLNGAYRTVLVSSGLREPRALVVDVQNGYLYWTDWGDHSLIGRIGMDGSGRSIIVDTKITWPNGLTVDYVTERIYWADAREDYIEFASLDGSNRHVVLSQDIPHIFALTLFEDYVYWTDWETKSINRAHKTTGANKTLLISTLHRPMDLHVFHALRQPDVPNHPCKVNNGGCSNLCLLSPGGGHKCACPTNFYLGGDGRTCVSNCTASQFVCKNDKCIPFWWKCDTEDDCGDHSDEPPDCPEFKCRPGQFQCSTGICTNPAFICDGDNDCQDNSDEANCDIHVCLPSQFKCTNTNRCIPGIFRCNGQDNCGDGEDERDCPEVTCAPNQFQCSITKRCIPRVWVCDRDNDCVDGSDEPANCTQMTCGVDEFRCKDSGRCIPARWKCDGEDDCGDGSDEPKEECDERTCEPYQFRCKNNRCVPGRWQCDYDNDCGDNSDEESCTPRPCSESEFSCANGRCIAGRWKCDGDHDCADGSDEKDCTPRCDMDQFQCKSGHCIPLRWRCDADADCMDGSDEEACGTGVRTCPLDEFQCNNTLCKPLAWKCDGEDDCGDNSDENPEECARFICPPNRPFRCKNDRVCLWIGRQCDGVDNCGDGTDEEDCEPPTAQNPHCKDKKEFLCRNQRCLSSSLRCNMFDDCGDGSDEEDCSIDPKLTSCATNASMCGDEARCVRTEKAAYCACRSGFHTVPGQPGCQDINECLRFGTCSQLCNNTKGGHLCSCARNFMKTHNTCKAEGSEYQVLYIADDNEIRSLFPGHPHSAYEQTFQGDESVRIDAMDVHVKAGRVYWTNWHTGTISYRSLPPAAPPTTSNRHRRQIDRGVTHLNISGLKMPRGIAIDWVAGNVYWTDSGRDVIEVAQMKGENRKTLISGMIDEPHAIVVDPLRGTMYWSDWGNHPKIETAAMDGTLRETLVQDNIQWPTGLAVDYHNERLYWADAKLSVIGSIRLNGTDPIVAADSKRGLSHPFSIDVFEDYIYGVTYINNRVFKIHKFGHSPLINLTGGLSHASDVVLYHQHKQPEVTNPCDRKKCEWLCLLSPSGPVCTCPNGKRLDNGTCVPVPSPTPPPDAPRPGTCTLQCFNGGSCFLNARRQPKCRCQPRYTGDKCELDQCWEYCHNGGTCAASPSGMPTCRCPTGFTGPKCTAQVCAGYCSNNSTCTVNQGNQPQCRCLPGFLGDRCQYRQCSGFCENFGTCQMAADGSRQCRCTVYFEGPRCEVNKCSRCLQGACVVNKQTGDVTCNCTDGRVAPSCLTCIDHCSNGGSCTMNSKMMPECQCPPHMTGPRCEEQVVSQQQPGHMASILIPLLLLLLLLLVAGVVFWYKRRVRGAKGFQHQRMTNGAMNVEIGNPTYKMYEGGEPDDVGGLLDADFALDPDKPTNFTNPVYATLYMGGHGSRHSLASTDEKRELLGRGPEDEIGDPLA

binding result [1]: binds
B1: lipoprotein lipase purified from bovine milk (enzyme, UniProt P11151 29-478, looked up)
chain: DRITGGKDFRDIESKFALRTPEDTAEDTCHLIPGVTESVANCHFNHSSKTFVVIHGWTVTGMYESWVPKLVAALYKREPDSNVIVVDWLSRAQQHYPVSAGYTKLVGQDVAKFMNWMADEFNYPLGNVHLLGYSLGAHAAGIAGSLTNKKVNRITGLDPAGPNFEYAEAPSRLSPDDADFVDVLHTFTRGSPGRSIGIQKPVGHVDIYPNGGTFQPGCNIGEALRVIAERGLGDVDQLVKCSHERSVHLFIDSLLNEENPSKAYRCNSKEAFEKGLCLSCRKNRCNNMGYEINKVRAKRSSKMYLKTRSQMPYKVFHYQVKIHFSGTESNTYTNQAFEISLYGTVAESENIPFTLPEVSTNKTYSFLLYTEVDIGELLMLKLKWISDSYFSWSNWWSSPGFDIGKIRVKAGETQKKVIFCSREKMSYLQKGKSPVIFVKCHDKSLNRKSG
notes: also called LpL

IC50 [2]: ~1 nM
Kd [3]: ~1 nM
Kd [4]: ~0.137 nM
Kd [5]: ~1 nM
degradation of 125I-CTGF, control MG63 cells against cells treated with TGF-β for 48 hours [6]: ≥ 3 fold
B2: recombinant human connective tissue growth factor (rhCTGF) (ligand, UniProt P29279 27-349, looked up)
chain: QNCSGPCRCPDEPAPRCPAGVSLVLDGCGCCRVCAKQLGELCTERDPCDPHKGLFCHFGSPANRKIGVCTAKDGAPCIFGGTVYRSGESFQSSCKYQCTCLDGAVGCMPLCSMDVRLPSPDCPFPRRVKLPGKCCEEWVCDEPKDQTVVGPALAAYRLEDTFGPDPTMIRANCLVQTTEWSACSKTCGMGISTRVTNDNASCRLEKQSRLCMVRPCEADLEENIKKGKKCIRTPKISKPIKFELSGCTSMKTYRAKFCGVCTDGRCCTPHRTTTLPVEFKCPDGEVMKKNMMFIKTCACHYNCPGDNDIFESLYYRKMYGDMA
modifications: radioiodinated (125I; Iodobeads or chloramine-T) when used as tracer; unlabeled when used as competitor
notes: mature; Form set to mature because the protein was secreted and purified from conditioned medium
